Patent US6806056B2, “Fluorescent capture assay for kinase activity employing an anti-phosphotyrosine antibody as both the capture agent and detecting agent” (Pharmacopeia Drug Discovery, Inc., priority 1999, dated 2004)

Columns and labels:
Type in all cases: cell-based
[1] = tested on: Jurkat cells; assay: Anti-phosphotyrosine capture assay of tyrosine kinase activity after SDF-1α stimulation for various times; details: 37° C., 100 nM SDF-1α, various time intervals, FIG. 2
Description: (§1) 96-well polystyrene plates were coated with an anti-phosphotyrosine antibody, pY99 (Santa Cruz Biotech, Inc., Santa Cruz, Calif.), by adding 200 μl of an antibody solution in Tris buffered saline (TBS) pH 8.0 at a concentration of 2.5 μg/ml. The plates were incubated for three hours at room temperature. The plates were then rinsed and 300 μl of blocking solution, sold under the trademark, SUIPERBLOCK® (Pierce Chemical, Rockford, Ill.) was added and the plates were incubated for two hours. At this point, the plates may be stored at 4° C. for up to two weeks. […]
To assay the cell lysates for kinase activity, the plate was thawed at 37° C., and 100 μl of tris buffered saline with 0.1% Tween 20 was added to each well. […] Relative phosphorylated protein levels were detected by adding 100 μl of a 0.2 μg/ml solution of europium-chelate labeled anti-phosphotyrosine antibody in tris buffered saline (pH 8.0) to each well and allowing the plate to incubate for one hour with shaking. […] Enhancement Solution for measuring Eu^3+ (E. G. & G. Wallac, Turku, FI) was added and the amount of labeled antibody bound was measured using a time-resolved fluorescence plate reader, for example, a Wallac 1420, or Victor MLC (Wallac Oy, Turku, FI). […]

[2] = tested on: Ramos B cells; assay: Anti-phosphotyrosine capture assay (time-resolved fluorescence) of tyrosine phosphorylation in stimulated B-cells; details: ligand 100 ng/ml, 15 minutes, FIG. 1
Description: as §1
(§2) To assay the cell lysates for kinase activity, the plate was thawed at 37° C., and 100 μl of tris buffered saline with 0.1% Tween 20 was added to each well. […] Relative phosphorylated protein levels were detected by adding 100 μl of a 0.2 μg/ml solution of europium-chelate labeled anti-phosphotyrosine antibody in tris buffered saline (pH 8.0) to each well and allowing the plate to incubate for one hour with shaking. […] Enhancement Solution for measuring Eu^3+ (E. G. & G. Wallac, Turku, FI) was added and the amount of labeled antibody bound was measured using a time-resolved fluorescence plate reader, for example, a Wallac 1420, or Victor MLC (Wallac Oy, Turku, FI).

[3] = tested on: Daudi B cells; assay: as above; details: ligand 100 ng/ml, 15 minutes, FIG. 1
Description: as §1, §2

SDF-1α
tyrosine kinase activity (fluorescence) as time increases [1]: decrease in kinase activity

B1: IL-4: IL-4, used as a stimulus for Daudi or Ramos B-cells (protein, UniProt P05112 25-153, looked up)
Interleukin-4: HKCDITLQEIIKTLNSLTEQKTLCTELTVTDIFAASKNTTEKETFCRAATVLRQFYSHHEKDTRCLGATAQQFHRHKQLIRFLKRLDRNLWGLAGLNSCPVKEANQSTLENFLERLKTIMREKYSKCSS
changes in tyrosine phosphorylation on stimulation [2]: not significantly
changes in tyrosine phosphorylation on stimulation [3]: not significantly
